The numbers were not newly measured in publication PMC11087511, which cites them from elsewhere.

Data set [1] concerns the target factor Xa within prothrombinase (Homo sapiens) (UniProt P00742). The note with it: cited from earlier work.
The target of a further data set is factor Xa (Homo sapiens) (UniProt P00742). The note with it: cited from earlier work.
Sequence of factor Xa (Homo sapiens) (P00742 235-488): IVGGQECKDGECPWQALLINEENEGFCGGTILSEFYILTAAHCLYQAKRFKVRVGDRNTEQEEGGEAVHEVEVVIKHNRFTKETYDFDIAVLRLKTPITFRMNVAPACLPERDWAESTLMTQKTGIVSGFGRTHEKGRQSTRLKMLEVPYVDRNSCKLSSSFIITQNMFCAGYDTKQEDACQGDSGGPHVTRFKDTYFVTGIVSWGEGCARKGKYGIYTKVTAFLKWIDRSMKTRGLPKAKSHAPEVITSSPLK

Sequence of Tick anticoagulant peptide (TAP) (P17726 whole entry): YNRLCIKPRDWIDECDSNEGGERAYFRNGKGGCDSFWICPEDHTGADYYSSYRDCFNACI
Sequence of factor Xa within prothrombinase (Homo sapiens) (P00742 41-179, chain 1 of 2): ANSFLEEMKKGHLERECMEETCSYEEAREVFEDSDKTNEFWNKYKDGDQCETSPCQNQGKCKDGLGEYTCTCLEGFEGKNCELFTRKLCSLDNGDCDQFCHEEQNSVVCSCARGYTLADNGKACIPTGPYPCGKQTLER
Sequence of factor Xa within prothrombinase (Homo sapiens) (P00742 235-488, chain 2 of 2): as the sequence (P00742 235-488) above

Take “Tick anticoagulant peptide (TAP) (from UniProt P17726)”: the Ki in data set [1] was 0.0053 nM; in the data set with factor Xa (Homo sapiens), 0.18 nM.

In general, Ki refers to the equilibrium dissociation constant of an inhibitor or competing ligand from its target.
